One assay has as its target soluble FcγRIIb (UniProt P31994). The experiment in a line: SPR; BIAcore 2000; FcγRIIa, FcγRIIb or FcγRIIIa amine-coupled to CM5 (8000-10000 RU); IgG1-4, with or without EndoS treatment, injected, typically 10-1.25 µg/ml, 35 µl/min, 25°C; 10 mM HEPES pH 7.5, 150 mM NaCl, 0.005% P20, 3.4 mM EDTA; 1:1 Langmuir fit; empty flow cell as reference. On the technique in general: Surface plasmon resonance follows binding to a sensor surface in real time, without labels.

The target in a further assay is soluble FcγRIIa (UniProt P12318). Described as above.
For a further assay, the target named is human IgG4 (human). Description: SPR; BIAcore 2000; IgG1-4 or deglycosylated IgG1-4 amine-coupled to CM5 (8000-10000 RU); EndoS or EndoS(E235Q) injected, typically 10-1.25 µg/ml, 35 µl/min, 25°C; 10 mM HEPES pH 7.5, 150 mM NaCl, 0.005% P20, 3.4 mM EDTA; 1:1 Langmuir fit; deglycosylated IgG flow cells as reference.
In another assay the target is human IgG2 (human). The description is as above.
The target in a further assay is human IgG3 (human). The description is as above.
The next assay deals with human IgG1 (human). The assay is described as above.

Sequence of UniProt P31994 (P31994 43-217): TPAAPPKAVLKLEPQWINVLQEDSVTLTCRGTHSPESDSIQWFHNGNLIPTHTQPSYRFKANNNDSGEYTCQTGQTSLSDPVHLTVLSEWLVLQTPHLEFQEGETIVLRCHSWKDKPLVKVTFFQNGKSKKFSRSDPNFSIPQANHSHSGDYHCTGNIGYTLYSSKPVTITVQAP
Sequence of UniProt P12318 (P12318 34-217): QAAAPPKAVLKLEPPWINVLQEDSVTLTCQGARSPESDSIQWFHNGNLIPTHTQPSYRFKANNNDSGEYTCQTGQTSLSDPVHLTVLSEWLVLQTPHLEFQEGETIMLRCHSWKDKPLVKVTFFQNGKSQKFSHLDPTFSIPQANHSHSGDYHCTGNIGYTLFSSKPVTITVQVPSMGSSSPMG

Regarding human IgG4 (antibody), in the assay with soluble FcγRIIb, the Kd – broadly, the concentration at which binding is half-saturated – worked out at 200 nM; the koff (commonly a measure of how fast the partners let go of each other) came to 0.0069 s⁻¹; the kon (as a rule, a measure of how fast the partners come together) stood at 34000 M⁻¹ s⁻¹.

Molecule human IgG1 (antibody) displayed a Kd with soluble FcγRIIa of 97 nM. This lies in the double-digit nanomolar range.

B1: EndoS(E235Q), inactive form of EndoS (enzyme)
chain: EEKTVQVQKGLPSIDSLHYLSENSKKEFKEELSKAGQESQKVKEILAKAQQADKQAQELAKMKIPEKIPMKPLHGSLYGGYFRTWHDKTSDPTEKDKVNSMGELPKEVDLAFIFHDWTKDYSLFWKELATKHVPKLNKQGTRVIRTIPWRFLAGGDNSGIAEDTSKYPNTPEGNKALAKAIVDEYVYKYNLDGLDVDVQHDSIPKVDKKEDTAGVERSIQVFEEIGKLIGPKGVDKSRLFIMDSTYMADKNPLIERGAPYINLLLVQVYGSQGEKGGWEPVSNRPEKTMEERWQGYSKYIRPEQYMIGFSFYEENAQEGNLWYDINSRKDEDKANGINTDITGTRAERYARWQPKTGGVKGGIFSYAIDRDGVAHQPKKYAKQKEFKDATDNIFHSDYSVSKALKTVMLKDKSYDLIDEKDFPDKALREAVMAQVGTRKGDLERFNGTLRLDNPAIQSLEGLNKFKKLAQLDLIGLSRITKLDRSVLPANMKPGKDTLETVLETYKKDNKEEPATIPPVSLKVSGLTGLKELDLSGFDRETLAGLDAATLTSLEKVDISGNKLDLAPGTENRQIFDTMLSTISNHVGSNEQTVKFDKQKPTGHYPDTYGKTSLRLPVANEKVDLQSQLLFGTVTNQGTLINSEADYKAYQNHKIAGRSFVDSNYHYNNFKVSYENYTVKVTDSTLGTTTDKTLATDKEETYKVDFFSPADKTKAVHTAKVIVGDEKTMMVNLAEGATVIGGSADPVNARKVFDGQLGSETDNISLGWDSKQSIIFKLKEDGLIKHWRFFNDSARNPETTNKPIQEASLQIFNIKDYNLDNLLENPNKFDDEKYWITVDTYSAQGERATAFSNTLNNITSKYWRVVFDTKGDRYSSPVVPELQILGYPLPNADTIMKTVTTAKELSQQKDKFSQKMLDELKIKEMALETSLNSKIFDVTAINANAGVLKDCIEKRQLLKK
B1: the equilibrium dissociation constant (Kd) with human IgG4 (human) stood at 140 nM; with human IgG2 (human), 210 nM; with human IgG3 (human), 83 nM; in the assay with human IgG1 (human) it was 420 nM. Also, the koff with human IgG4 (human) came to 0.002 s⁻¹; with human IgG2 (human) it was 0.0025 s⁻¹; with human IgG3 (human), 0.0089 s⁻¹; with human IgG1 (human) it was 0.0176 s⁻¹. Also, the kon with human IgG4 (human) amounted to 15000 M⁻¹ s⁻¹; in the assay with human IgG2 (human) it was 12000 M⁻¹ s⁻¹; in the assay with human IgG3 (human) it was 107000 M⁻¹ s⁻¹; in the assay with human IgG1 (human), 42000 M⁻¹ s⁻¹.

The values above are taken from publication PMC2173940.
